Measurements reported in PMC11437077.

T1: mouse PD-L2 with C-terminal biotin, Q9WUL5
T1 chain: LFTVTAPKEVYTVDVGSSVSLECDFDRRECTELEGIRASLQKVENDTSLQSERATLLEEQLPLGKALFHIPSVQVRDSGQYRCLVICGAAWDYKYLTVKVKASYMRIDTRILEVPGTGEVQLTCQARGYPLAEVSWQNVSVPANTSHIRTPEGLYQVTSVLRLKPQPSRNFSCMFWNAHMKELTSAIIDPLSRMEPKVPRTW


Key:
[1] = target: T1, mouse PD-L2 with C-terminal biotin, …; experiment: dynamic force spectroscopic analysis with BFP; conditions: chain shown with the change
[2] = target: T1, mouse PD-L2 with C-terminal biotin, …; experiment: 2D effective affinity measurement, PD-L2-coated RBCs against PD-1-expressing CHO cells; conditions: chain shown with the change, parent: est. 0.00098, read off a plot
[3] = target: T1, mouse PD-L2 with C-terminal biotin, …; experiment: bond lifetime vs force measurement, single bonds (BFP); conditions: chain shown with the change, read off a plot
[4] = target: T1, mouse PD-L2 with C-terminal biotin, …; experiment: effective bond lifetime (bond lifetime x bond survival probability, BFP data); conditions: chain shown with the change, read off a plot

Binder	other: F1/2 (rupture force) ([1]; n = 270 events) [pN]	other: AcKa (2D effective affinity) ([2]; n = 12 cell pairs) [µm^4]	other: F1/2 (rupture force) ([1]; n = 210 events) [pN]	other: F1/2 (rupture force) ([1]; n = 345 events) [pN]	other: bond lifetime ([3]; force bin est. 2.2 pN) [s]	other: bond lifetime ([3]; force bin est. 4.3 pN) [s]	other: bond lifetime ([3]; force bin est. 11 pN) [s]	other: effective bond lifetime ([4]; force bin est. 2.2 pN) [s]	other: effective bond lifetime ([4]; force bin est. 4.3 pN) [s]	other: effective bond lifetime ([4]; force bin est. 8.3 pN) [s]	other: effective bond lifetime ([4]; force bin est. 11 pN) [s]	other: AcKa (2D effective affinity) ([2]; n = 13 cell pairs) [µm^4]
mouse PD-1 wild type expressed on CHO cells, Q02242 A132K (protein) LEVPNGPWRSLTFYPAWLTVSEGANATFTCSLSNWSEDLMLNWNRLSPSNQTEKQAAFCNGLSQPVQDARFQIIQLPNRHDFHMNILDTRRNDSGIYLCGAISLHPKKKIEESPGAELVVTERILETSTRYPSPSPKPEGRFQGMVIGIMSALVGIPVLLLLAWALAVFCSTSMSEARGAGSKDDTLKEEPSAAPVPSVAYEELDFQGREKTPELPTACVHTEYATIVFTEGLGASAMGRRGSADGLQGPRPPRHEDGHCSWPL	9.5	0.00085										
mouse PD-1 wild type expressed on CHO cells, Q02242 K131A (protein) LEVPNGPWRSLTFYPAWLTVSEGANATFTCSLSNWSEDLMLNWNRLSPSNQTEKQAAFCNGLSQPVQDARFQIIQLPNRHDFHMNILDTRRNDSGIYLCGAISLHPAAKIEESPGAELVVTERILETSTRYPSPSPKPEGRFQGMVIGIMSALVGIPVLLLLAWALAVFCSTSMSEARGAGSKDDTLKEEPSAAPVPSVAYEELDFQGREKTPELPTACVHTEYATIVFTEGLGASAMGRRGSADGLQGPRPPRHEDGHCSWPL		0.0011	9.4									
mouse PD-1 wild type expressed on CHO cells, Q02242 L128A; K131A (protein) LEVPNGPWRSLTFYPAWLTVSEGANATFTCSLSNWSEDLMLNWNRLSPSNQTEKQAAFCNGLSQPVQDARFQIIQLPNRHDFHMNILDTRRNDSGIYLCGAISAHPAAKIEESPGAELVVTERILETSTRYPSPSPKPEGRFQGMVIGIMSALVGIPVLLLLAWALAVFCSTSMSEARGAGSKDDTLKEEPSAAPVPSVAYEELDFQGREKTPELPTACVHTEYATIVFTEGLGASAMGRRGSADGLQGPRPPRHEDGHCSWPL				9.7	0.16	0.15	0.05	0.16	0.14	0.04	0.015	0.00088
